From US9770469B2, “Methods of reprogramming renal cells” (Tel HaShomer Medical Research Infrastructure and Services …, priority 2009, dated 2017)

How the values were obtained:
human fetal kidney cells = assay: qRT-PCR after Wnt antagonists DKK1/sFRP1 with or without VPA; type: cell-based
Protocol: (§1) Cell Treatment: Cells were treated for 24 hours with growth medium supplemented with 1, 2, or 4 mM VPA (Sigma) or with H2O for control sample. Otherwise, cells were treated for 24 hours with growth medium supplemented with the combination of 75 μM TSA (Sigma) and 250 μM 5-AZA (Sigma) or with 100% Ethanol and Acetic Acid (Acetic Acid: H2O 1:1) for control sample. […] 24 hours prior to harvesting VPA at a concentration of 4 mM was added to the cell culture.
(§2) Quantitative Reverse Transcription-PCR: Total RNA from kidney tissue cultured cells was isolated using the TRIZOL reagent (Invitrogen) according to the manufacturer's protocols. cDNA synthesis was carried out using Verso kit (Thermo scientific) with Random primers. Quantitative RT PCR was performed using an ABI7900HT sequence detection system (Perkin-Elmer/Applied Biosystems) in the presence of SYBR green (SYBR green PCR kit; Qiagen). Each analysis reaction was performed in duplicates or triplicates. GapDH was used as an endogenous control throughout all experimental analyses. Analysis was performed using the −ΔΔCt method, which determines fold changes in gene expression relative to a comparator sample.

human adult kidney cells = assay: as above; type: cell-based; details: DKK1 3 μg/ml or sFRP1 7 μg/ml 72 h; for Osr1 expression, Wnt antagonist combined with VPA / Six2 expression, Wnt antagonist combined with VPA: VPA 4 mM last 24 h; for Osr1 expression, Wnt antagonist alone: no VPA
Protocol: as §1, §2

[1] = fetal kidney cells, DKK1 3 μg/ml or sFRP1 7 μg/ml 72 h, VPA 4 mM last 24 h
[2] = fetal kidney cells, DKK1 3 μg/ml or sFRP1 7 μg/ml 72 h, no VPA

Molecule	Six2 expression, Wnt antagonist alone (human fetal kidney cells; FK cells, DKK1 3 μg/ml or sFRP1 7 μg/ml 72 h, no VPA)	Osr1 expression, Wnt antagonist combined with VPA (human fetal kidney cells; [1])	Osr1 expression, Wnt antagonist alone (human fetal kidney cells; [2])	Six2 expression, Wnt antagonist combined with VPA (human fetal kidney cells; fetal kidney cells, sFRP1 7 μg/ml 72 h, VPA 4 mM last 24 h)	Osr1 expression, Wnt antagonist combined with VPA (human adult kidney cells)	Six2 expression, Wnt antagonist combined with VPA (human adult kidney cells)	Osr1 expression, Wnt antagonist alone (human adult kidney cells)
sFRP1: Wnt pathway antagonist (R&D systems) (protein, UniProt Q8N474 32-314, looked up) Secreted frizzled-related …: SEYDYVSFQSDIGPYQSGRFYTKPPQCVDIPADLRLCHNVGYKKMVLPNLLEHETMAEVKQQASSWVPLLNKNCHAGTQVFLCSLFAPVCLDRPIYPCRWLCEAVRDSCEPVMQFFGFYWPEMLKCDKFPEGDVCIAMTPPNATEASKPQGTTVCPPCDNELKSEAIIEHLCASEFALRMKIKEVKKENGDKKIVPKKKKPLKLGPIKKKDLKKLVLYLKNGADCPCHQLDNLSHHFLIMGRKVKSQYLLTAIHKWDKKNKEFKNFMKKMKNHECPTFQSVFK	elevated Six2 levels	synergistic affect	little effect	synergistic effect	synergistic affect	synergistic effect	little effect
DKK1: Wnt pathway antagonist (R&D systems) (protein, UniProt O94907 32-266, looked up) Dickkopf-related protein 1: TLNSVLNSNAIKNLPPPLGGAAGHPGSAVSAAPGILYPGGNKYQTIDNYQPYPCAEDEECGTDEYCASPTRGGDAGVQICLACRKRRKRCMRHAMCCPGNYCKNGICVSSDQNHFRGEIEETITESFGNDHSTLDGYSRRTTLSSKMYHTKGQEGSVCLRSSDCASGLCCARHFWSKICKPVLKEGQVCTKHRRKGSHGLEIFQRCYCGEGLSCRIQKDHHQASNSSRLHTCQRH		synergistic affect	little effect		synergistic affect	synergistic effect	little effect
